From US20220296683A1, “ORAL DELIVERY SYSTEM” (University College Dublin, priority 2019, published 2022)

Assay: Circular dichroism of secondary structure of SiNP-released peptide
Assay type: physicochemical
Details: CD
From the text: The behaviour of insulin-SiNPs and exenatide-SiNPs in biologically-relevant buffers depended on media pH and salinity. Both constructs aggregated in PBS, while remaining colloidally-stable in simulated small intestinal fluid (SIF) at pH 6.3 (Supplementary FIGS. 18, 19 for insulin-SiNPs and exenatide-SiNPs, respectively). PBS was used to measure the concentration of the released peptide, while SIF was used to examine secondary structure. For insulin-SiNPs (˜300 nm in diameter, particle concentration of 0.2 mg/mL), release was measured by HPLC in simulated gastric fluid (SGF) at pH 2.3, SIF at pH 6.3, and PBS at pH 7.4. […] Exenatide-SiNP dissolved in PBS in a size-dependent fashion: particles of ˜90 nm in diameter dissolved within 60 min at a particle concentration 0.2 mg/mL, while ˜200 nm diameter particles took over 3 h (Supplementary FIG. 20a). […] Parameters used were as follows: • Measurement window: 200-300 nm. • Data pitch: 0.5 nm • Band width: 2 nm • Response: 4 sec • Scanning speed 50 nm/min • Number of runs in measurement (accumulation): 8 • Temperature: Room temperature (20° C.) Insulin, L-arg solutions, mixtures and insulin core and SiNPs were measured at appropriate concentration in an ultra-low volume (1=1 mm) cuvette and at appropriate concentrations. […]

released exenatide: exenatide released from exenatide-SiNPs in PBS
secondary structure of released peptide vs free peptide: comparable to that of the free peptide
